From publication PMC9482650, “Quantitative fragmentomics allow affinity mapping of interactomes” (Nature Communications, 2022)
Where a chain is given by its changes, count along the chain named.

T1: APBA1_2, Q02410
T1 sequence (Q02410 742-832, limits assumed, looked up): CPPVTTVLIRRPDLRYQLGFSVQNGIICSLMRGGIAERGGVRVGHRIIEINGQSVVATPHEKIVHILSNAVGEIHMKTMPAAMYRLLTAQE

T2: TJP3_3, O95049
T2 sequence (O95049 375-456, limits assumed, looked up): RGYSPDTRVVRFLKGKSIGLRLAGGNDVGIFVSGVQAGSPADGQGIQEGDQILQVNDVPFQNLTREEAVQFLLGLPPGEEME

T3: LIN7A, O14910
T3 sequence (O14910 103-200, limits assumed, looked up): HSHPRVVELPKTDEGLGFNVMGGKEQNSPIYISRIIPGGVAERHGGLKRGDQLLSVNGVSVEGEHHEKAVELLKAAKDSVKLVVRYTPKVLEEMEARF

T4: GRIP1_5, Q9Y3R0
T4 sequence (Q9Y3R0 568-668, limits assumed, looked up): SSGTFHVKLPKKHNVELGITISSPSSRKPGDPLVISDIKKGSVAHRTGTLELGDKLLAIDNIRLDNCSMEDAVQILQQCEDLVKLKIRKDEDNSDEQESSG

T5: PARD3B_1, Q8TEW8
T5 sequence (Q8TEW8 196-299, limits assumed, looked up): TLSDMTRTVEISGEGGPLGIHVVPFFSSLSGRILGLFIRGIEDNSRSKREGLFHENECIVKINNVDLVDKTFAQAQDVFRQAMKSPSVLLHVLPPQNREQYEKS

T6: RADIL, Q96JH8
T6 sequence (Q96JH8 971-1071, limits assumed, looked up): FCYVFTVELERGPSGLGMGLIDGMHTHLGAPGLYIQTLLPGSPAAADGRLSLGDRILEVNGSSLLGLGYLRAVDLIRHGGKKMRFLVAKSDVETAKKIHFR

T7: SYNJ2BP, P57105
T7 sequence (P57105 8-110, limits assumed, looked up): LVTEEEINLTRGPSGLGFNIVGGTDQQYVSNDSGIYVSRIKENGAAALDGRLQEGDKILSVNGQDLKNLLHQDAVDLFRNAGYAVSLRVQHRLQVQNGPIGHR

T8: SHANK1, Q9Y566
T8 sequence (Q9Y566 658-767, limits assumed, looked up): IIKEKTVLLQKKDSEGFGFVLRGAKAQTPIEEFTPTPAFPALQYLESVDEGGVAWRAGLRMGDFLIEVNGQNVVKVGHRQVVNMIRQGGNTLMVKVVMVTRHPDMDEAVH

T9: DLG3_1, Q92796
T9 sequence (Q92796 125-227, limits assumed, looked up): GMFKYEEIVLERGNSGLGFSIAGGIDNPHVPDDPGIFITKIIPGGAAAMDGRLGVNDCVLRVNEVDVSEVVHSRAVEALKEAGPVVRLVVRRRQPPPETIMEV

T10: LIN7C, Q9NUP9
T10 sequence (Q9NUP9 88-185, limits assumed, looked up): T3 sequence (O14910 103-200, limits assumed, looked up) with D13E, V20I, V40I, E42D, K77Q, D78G, S79K, A96S


Target: Inadl_1, Q8NI35
Test: holdup assay
Parameters: key: below the threshold = too weak to quantify, mostly under pKd 3.1 to 4
Conditions: plain residues with an end cap or a label only (N-terminal biotin on a linker: ado-ado)

Sequence of Inadl_1, Q8NI35 (Q8NI35 113-229): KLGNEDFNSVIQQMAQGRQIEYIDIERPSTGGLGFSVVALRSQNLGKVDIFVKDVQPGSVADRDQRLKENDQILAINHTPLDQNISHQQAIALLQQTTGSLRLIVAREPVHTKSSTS

pKd | Binder
below the threshold | REEPDHSTEV [CCRL2, O00421]

Target: GRIP2_3, Q9C0E4
Test: holdup assay
Parameters: key: below the threshold = too weak to quantify, mostly under pKd 3.1 to 4
Conditions: plain residues with an end cap or a label only (N-terminal biotin on a linker: ado-ado)

Sequence of GRIP2_3, Q9C0E4 (Q9C0E4 238-339): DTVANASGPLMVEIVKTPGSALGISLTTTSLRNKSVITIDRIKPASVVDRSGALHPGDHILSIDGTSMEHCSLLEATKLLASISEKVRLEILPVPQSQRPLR

pKd | Binder
below the threshold | REEPDHSTEV [CCRL2, O00421]

Target: MAST1, Q9Y2H9
Test: holdup assay
Parameters: key: below the threshold = too weak to quantify, mostly under pKd 3.1 to 4
Conditions: plain residues with an end cap or a label only (N-terminal biotin on a linker: ado-ado)

Sequence of MAST1, Q9Y2H9 (Q9Y2H9 962-1065): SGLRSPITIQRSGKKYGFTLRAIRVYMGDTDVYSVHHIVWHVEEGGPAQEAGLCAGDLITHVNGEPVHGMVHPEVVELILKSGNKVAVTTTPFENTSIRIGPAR

pKd | Binder
4.74 | REEPDHSTEV [CCRL2, O00421]

Target: T1, APBA1_2, Q02410
Test: holdup assay
Parameters: key: below the threshold = too weak to quantify, mostly under pKd 3.1 to 4
Conditions: plain residues with an end cap or a label only (N-terminal biotin on a linker: ado-ado)

pKd | Binder
3.9 | REEPDHSTEV [CCRL2, O00421]

Target: T2, TJP3_3, O95049
Test: holdup assay
Parameters: key: below the threshold = too weak to quantify, mostly under pKd 3.1 to 4
Conditions: plain residues with an end cap or a label only (N-terminal biotin on a linker: ado-ado)

pKd | Binder
below the threshold | REEPDHSTEV [CCRL2, O00421]

Target: T3, LIN7A, O14910
Test: holdup assay
Parameters: key: below the threshold = too weak to quantify, mostly under pKd 3.1 to 4
Conditions: plain residues with an end cap or a label only (N-terminal biotin on a linker: ado-ado)

pKd | Binder
below the threshold | REEPDHSTEV [CCRL2, O00421]

Target: DLG1_1, Q12959
Test: holdup assay
Parameters: key: below the threshold = too weak to quantify, mostly under pKd 3.1 to 4
Conditions: plain residues with an end cap or a label only (N-terminal biotin on a linker: ado-ado)

pKd | Binder
4.49 | REEPDHSTEV [CCRL2, O00421]

Target: MAGI1_2, Q96QZ7
Test: holdup assay
Parameters: key: below the threshold = too weak to quantify, mostly under pKd 3.1 to 4
Conditions: plain residues with an end cap or a label only (N-terminal biotin on a linker: ado-ado)

Sequence of MAGI1_2, Q96QZ7 (Q96QZ7 456-580): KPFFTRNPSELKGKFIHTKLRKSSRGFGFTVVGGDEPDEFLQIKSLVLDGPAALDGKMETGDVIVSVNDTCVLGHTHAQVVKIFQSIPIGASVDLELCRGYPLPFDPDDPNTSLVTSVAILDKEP

pKd | Binder
below the threshold | REEPDHSTEV [CCRL2, O00421]

Target: DLG2_2, Q15700
Test: holdup assay
Parameters: key: below the threshold = too weak to quantify, mostly under pKd 3.1 to 4
Conditions: plain residues with an end cap or a label only (N-terminal biotin on a linker: ado-ado)

Sequence of DLG2_2, Q15700 (Q15700 189-283): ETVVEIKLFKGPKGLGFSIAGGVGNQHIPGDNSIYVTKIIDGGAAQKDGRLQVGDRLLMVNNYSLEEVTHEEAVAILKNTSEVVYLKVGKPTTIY

pKd | Binder
4.5 | REEPDHSTEV [CCRL2, O00421]

Target: AHNAK1, Q09666
Test: holdup assay
Parameters: key: below the threshold = too weak to quantify, mostly under pKd 3.1 to 4
Conditions: plain residues with an end cap or a label only (N-terminal biotin on a linker: ado-ado)

Sequence of AHNAK1, Q09666 (Q09666 4-100): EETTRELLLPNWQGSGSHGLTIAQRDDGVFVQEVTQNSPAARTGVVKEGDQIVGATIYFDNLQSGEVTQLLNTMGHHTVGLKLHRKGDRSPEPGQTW

pKd | Binder
below the threshold | REEPDHSTEV [CCRL2, O00421]

Target: T4, GRIP1_5, Q9Y3R0
Test: holdup assay
Parameters: key: below the threshold = too weak to quantify, mostly under pKd 3.1 to 4
Conditions: plain residues with an end cap or a label only (N-terminal biotin on a linker: ado-ado)

pKd | Binder
below the threshold | REEPDHSTEV [CCRL2, O00421]

Target: MAGI2_5, Q86UL8
Test: holdup assay
Parameters: key: below the threshold = too weak to quantify, mostly under pKd 3.1 to 4
Conditions: plain residues with an end cap or a label only (N-terminal biotin on a linker: ado-ado)

Sequence of MAGI2_5, Q86UL8 (Q86UL8 915-1017): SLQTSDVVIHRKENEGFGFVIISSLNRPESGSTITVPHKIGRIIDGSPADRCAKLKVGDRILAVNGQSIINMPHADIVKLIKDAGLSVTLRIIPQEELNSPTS

pKd | Binder
4.68 | REEPDHSTEV [CCRL2, O00421]

Target: PTPN3, P26045
Test: holdup assay
Parameters: key: below the threshold = too weak to quantify, mostly under pKd 3.1 to 4
Conditions: plain residues with an end cap or a label only (N-terminal biotin on a linker: ado-ado)

Sequence of PTPN3, P26045 (P26045 505-587): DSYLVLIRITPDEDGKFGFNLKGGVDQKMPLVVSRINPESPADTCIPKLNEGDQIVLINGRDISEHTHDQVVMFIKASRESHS

pKd | Binder
4.79 | REEPDHSTEV [CCRL2, O00421]

Target: GORASP1, Q9BQQ3
Test: holdup assay
Parameters: key: below the threshold = too weak to quantify, mostly under pKd 3.1 to 4
Conditions: plain residues with an end cap or a label only (N-terminal biotin on a linker: ado-ado)

Sequence of GORASP1, Q9BQQ3 (Q9BQQ3 1-208): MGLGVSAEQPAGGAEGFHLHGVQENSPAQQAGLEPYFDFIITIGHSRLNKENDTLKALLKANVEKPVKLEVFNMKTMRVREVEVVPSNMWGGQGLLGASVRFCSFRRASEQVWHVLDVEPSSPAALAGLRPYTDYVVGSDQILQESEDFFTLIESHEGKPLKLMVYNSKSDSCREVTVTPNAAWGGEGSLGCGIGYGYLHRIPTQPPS

pKd | Binder
below the threshold | REEPDHSTEV [CCRL2, O00421]

Target: T5, PARD3B_1, Q8TEW8
Test: holdup assay
Parameters: key: below the threshold = too weak to quantify, mostly under pKd 3.1 to 4
Conditions: plain residues with an end cap or a label only (N-terminal biotin on a linker: ado-ado)

pKd | Binder
below the threshold | REEPDHSTEV [CCRL2, O00421]

Target: T6, RADIL, Q96JH8
Test: holdup assay
Parameters: key: below the threshold = too weak to quantify, mostly under pKd 3.1 to 4
Conditions: plain residues with an end cap or a label only (N-terminal biotin on a linker: ado-ado)

pKd | Binder
3.96 | REEPDHSTEV [CCRL2, O00421]

Target: T7, SYNJ2BP, P57105
Test: holdup assay
Parameters: key: below the threshold = too weak to quantify, mostly under pKd 3.1 to 4
Conditions: plain residues with an end cap or a label only (N-terminal biotin on a linker: ado-ado)

pKd | Binder
5.14 | REEPDHSTEV [CCRL2, O00421]

Target: T8, SHANK1, Q9Y566
Test: holdup assay
Parameters: key: below the threshold = too weak to quantify, mostly under pKd 3.1 to 4
Conditions: plain residues with an end cap or a label only (N-terminal biotin on a linker: ado-ado)

pKd | Binder
4.13 | REEPDHSTEV [CCRL2, O00421]

Target: HTRA2, O43464
Test: holdup assay
Parameters: key: below the threshold = too weak to quantify, mostly under pKd 3.1 to 4
Conditions: plain residues with an end cap or a label only (N-terminal biotin on a linker: ado-ado)

Sequence of HTRA2, O43464 (O43464 355-458): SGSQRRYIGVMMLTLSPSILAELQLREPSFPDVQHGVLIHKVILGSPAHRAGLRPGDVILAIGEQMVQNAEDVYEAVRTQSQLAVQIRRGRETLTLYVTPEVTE

pKd | Binder
3.54 | REEPDHSTEV [CCRL2, O00421]

Target: Inadl_2, Q8NI35
Test: holdup assay
Parameters: key: below the threshold = too weak to quantify, mostly under pKd 3.1 to 4
Conditions: plain residues with an end cap or a label only (N-terminal biotin on a linker: ado-ado)

Sequence of Inadl_2, Q8NI35 (Q8NI35 238-335): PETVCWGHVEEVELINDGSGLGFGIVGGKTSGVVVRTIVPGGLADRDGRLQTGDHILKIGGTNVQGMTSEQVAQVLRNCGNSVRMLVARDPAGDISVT

pKd | Binder
below the threshold | REEPDHSTEV [CCRL2, O00421]

Target: NHERF2_2, Q15599
Test: holdup assay
Parameters: key: below the threshold = too weak to quantify, mostly under pKd 3.1 to 4
Conditions: plain residues with an end cap or a label only (N-terminal biotin on a linker: ado-ado)

Sequence of NHERF2_2, Q15599 (Q15599 142-238): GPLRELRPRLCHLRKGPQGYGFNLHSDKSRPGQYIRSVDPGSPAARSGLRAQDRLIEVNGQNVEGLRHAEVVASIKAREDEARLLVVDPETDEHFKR

pKd | Binder
3.65 | REEPDHSTEV [CCRL2, O00421]

Target: DLG4_2, P78352
Test: holdup assay
Parameters: key: below the threshold = too weak to quantify, mostly under pKd 3.1 to 4
Conditions: plain residues with an end cap or a label only (N-terminal biotin on a linker: ado-ado)

Sequence of DLG4_2, P78352 (P78352 155-259): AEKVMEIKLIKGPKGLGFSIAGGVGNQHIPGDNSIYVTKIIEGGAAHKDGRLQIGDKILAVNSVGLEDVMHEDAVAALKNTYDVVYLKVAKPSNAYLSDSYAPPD

pKd | Binder
4.66 | REEPDHSTEV [CCRL2, O00421]

Target: MAGI1_1, Q96QZ7
Test: holdup assay
Parameters: key: below the threshold = too weak to quantify, mostly under pKd 3.1 to 4
Conditions: plain residues with an end cap or a label only (N-terminal biotin on a linker: ado-ado)

Sequence of MAGI1_1, Q96QZ7 (Q96QZ7 1-106): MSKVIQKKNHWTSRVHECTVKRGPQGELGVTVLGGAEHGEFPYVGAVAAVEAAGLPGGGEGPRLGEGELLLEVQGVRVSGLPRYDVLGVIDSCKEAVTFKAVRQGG

pKd | Binder
below the threshold | REEPDHSTEV [CCRL2, O00421]

Target: Inadl_9, Q8NI35
Test: holdup assay
Parameters: key: below the threshold = too weak to quantify, mostly under pKd 3.1 to 4
Conditions: plain residues with an end cap or a label only (N-terminal biotin on a linker: ado-ado)

Sequence of Inadl_9, Q8NI35 (Q8NI35 1530-1615): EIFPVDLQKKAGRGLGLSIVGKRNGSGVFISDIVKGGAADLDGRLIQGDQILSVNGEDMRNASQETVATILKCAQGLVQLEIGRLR

pKd | Binder
4 | REEPDHSTEV [CCRL2, O00421]

Target: T9, DLG3_1, Q92796
Test: holdup assay
Parameters: key: below the threshold = too weak to quantify, mostly under pKd 3.1 to 4
Conditions: plain residues with an end cap or a label only (N-terminal biotin on a linker: ado-ado)

pKd | Binder
4.26 | REEPDHSTEV [CCRL2, O00421]

Target: PARD3_3, Q8TEW0
Test: holdup assay
Parameters: key: below the threshold = too weak to quantify, mostly under pKd 3.1 to 4
Conditions: plain residues with an end cap or a label only (N-terminal biotin on a linker: ado-ado)

Sequence of PARD3_3, Q8TEW0 (Q8TEW0 582-685): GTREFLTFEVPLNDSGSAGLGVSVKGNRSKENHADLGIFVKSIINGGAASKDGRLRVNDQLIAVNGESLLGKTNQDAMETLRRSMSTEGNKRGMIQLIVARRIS

pKd | Binder
3.61 | REEPDHSTEV [CCRL2, O00421]

Target: T10, LIN7C, Q9NUP9
Test: holdup assay
Parameters: key: below the threshold = too weak to quantify, mostly under pKd 3.1 to 4
Conditions: plain residues with an end cap or a label only (N-terminal biotin on a linker: ado-ado)

pKd | Binder
below the threshold | REEPDHSTEV [CCRL2, O00421]
